Measurements reported in patent US20090192048A1, “METHOD OF PRODUCING A […] AGENT FOR BINDING A LIGAND” (priority 2005, published 2009).
Where “and” joins values, the source holds several entries; their conditions need not be identical. Equal entries are not always repeated. Ends that are not written are not given here.

What was measured:
Assay type in all cases: physicochemical
[1] = Retention of peptides on Greiner polystyrene V-bottom wells; settings: 400V scan; for Untreated fluorescence: unwashed; for Retained fluorescence: washed 15 minutes in 1 M NaCl in 10 mM tris-HCl (pH 8.0)
Procedure: (§1) The retention of peptides 2DOS-1 to 2DOS-16 (see above) on polypropylene and polystyrene surfaces was compared:
(§2) 5 mM tris-HCl (pH 8.0) in 75% (v/v) aqueous acetonitrile was used as the solvent for the peptides and for TAMRA.
(§3) 20 μl aliquots of 5 μM peptides 2DOS-1 to 2DOS-16 and 5 μM TAMRA were pipetted into the wells of a Costar V-bottomed polypropylene microtitre plate, a Greiner V-bottomed polypropylene microtitre plate, and a Greiner V-bottomed polystyrene microtitre plate according to the scheme shown in FIG. 26:
(§4) The peptide samples were allowed to evaporate to dryness in the dark.
(§5) The peptide samples in the top two rows of the microtitre plates were then incubated for 15 minutes at room temperature in 250 μl of 1 M NaCl in 10 mM tris-HCl (pH 8.0).
(§6) After incubation, the wash buffer was pipetted up and down eight times in the well before removing the supernatant.
(§7) The washed and untreated peptide samples were then resuspended in 50 μl of 10 mM tris-HCl (pH 8.0) in 50% (v/v) aqueous acetonitrile.
(§8) The microtitre plates were imaged at 200 μm resolution on a Typhoon Trio Plus variable mode imager (Amersham Biosciences) with the green (532 nm) laser and the 580 BP 30 filter at the PMT voltages indicated below and at normal sensitivity. The scan height was set at +3 mm and the sample was pressed during scanning.
(§9) The fluorescence images were analysed using ImageQuant TL v2003.03 (Amersham Biosciences).

[2] = Retention of peptides in V-bottomed polypropylene wells; settings: V-bottom wells, 500V scan; for Untreated fluorescence: unwashed; for Retained fluorescence: washed 15 minutes in 1 M NaCl in 10 mM tris-HCl (pH 8.0)
Procedure: (§10) The retention of peptides 2DOS-1 to 2DOS-16 (see above) on polypropylene wells of different geometries was investigated:
(§11) 10 mM tris-HCl (pH 8.0) in 50% (v/v) aqueous acetonitrile was used as the solvent for the peptides and for TAMRA.
(§12) 1 μl aliquots of 10 μM peptides 2DOS-1 to 2DOS-16 and 10 μM TAMRA were pipetted into the wells of a Costar V-bottomed polypropylene microtitre plate and a Greiner flat-bottomed polypropylene microtitre plate according to the following scheme as shown in FIG. 22:
as §4
(§13) The peptide samples in the top two rows of the microtitre plates were then incubated for 15′ minutes at room temperature in 250 μl of 1 M NaCl in 10 mM tris-HCl (pH 8.0).
as §6, §7
as §8, with “the platen” for “+3 mm”, “during,” for “during”
as §9

[3] = Retention of peptides 2DOS-1 to 2DOS-16 on a hydrophobic surface (polypropylene microtitre plate wells), water wash; settings: 400V scan; for Initial fluorescence (×10^3): 100 μl of 10 μM peptide before drying and washing; for Recovered fluorescence (×10^3): dried, washed ten times with 250 μl water, resuspended
Procedure: The retention of peptides 2DOS-1 to 2DOS-16 on a hydrophobic surface (the wells of a polypropylene microtitre plate) was then investigated.
as §11
100 μl aliquots of 10 μM peptides 2DOS-1 to 2DOS-16 and 10 μM TAMRA were placed in the wells of a Costar microtitre plate as shown in FIG. 13:
as §8, with “plate was” for “plates were”
The peptides were allowed to evaporate to dryness overnight in the dark and the microtitre plate was again scanned as described above.
The wells were then washed ten times with 250 μl of water.
The residual surface-bound peptides were finally resuspended in 100 μl of 10 mM tris-HCl (pH 8.0) in 50% (v/v) aqueous acetonitrile and the microtitre plate was again scanned as described above.
as §9
Quantification data (using the data from the 400V scan) is given in Table 2 and shown graphically in FIG. 15.

[4] = Retention of peptides on Costar polypropylene V-bottom wells; settings: 400V scan; for Untreated fluorescence: unwashed; for Retained fluorescence: washed 15 minutes in 1 M NaCl in 10 mM tris-HCl (pH 8.0)
Procedure: as §1, §2, §3, §4, §5, §6, §7, §8, §9

[5] = Retention of peptides on Greiner polypropylene V-bottom wells; settings: 400V scan; for Untreated fluorescence: unwashed; for Retained fluorescence: washed 15 minutes in 1 M NaCl in 10 mM tris-HCl (pH 8.0)
Procedure: as §1, §2, §3, §4, §5, §6, §7, §8, §9

[6] = Retention of peptides in flat-bottomed polypropylene wells; settings: flat-bottom wells, 500V scan; for Untreated fluorescence: unwashed; for Retained fluorescence: washed 15 minutes in 1 M NaCl in 10 mM tris-HCl (pH 8.0)
Procedure: as §10, §11, §12, §4, §13, §6, §7
as §8, with “the platen” for “+3 mm”, “during,” for “during”
as §9

[7] = Retention of peptides P1-1 to P1-5 on a polypropylene sheet after successive washes; settings: for Average fluorescence, control array / Corrected signal, control array: unwashed control array
Procedure: Further experiments were undertaken to investigate the retention of peptides P1-1 to, P1-5 and P2-1 to P2-2, shown in Table 3, on a polypropylene surface.
The polypropylene sheet was wiped with 50% (v/v) aqueous acetonitrile prior to use.
8× replicate 20 nl volumes of 1 μM peptides P1-1 to P1-5 and P2-1 to P2-2 and TAMRA in dimethyl sulphoxide (DMSO) were dispensed at 1 mm spacing to a 3″×1″×1 mm polypropylene sheet using the Piezorray system (PerkinElmer LAS). 500 drops were pre-dispensed using the ‘side shoot’ option and the tuning was set to 72V for 30 μs.
The slide was imaged at 10 μm resolution on a Typhoon Trio Plus variable mode imager (Amersham Biosciences) with the green (532 nm) laser and the 580 BP 30 filter at a PMT voltage of 600 V and at normal sensitivity. The scan height was set at the platen and the samples were pressed during scanning. The fluorescence image was analysed using ImageQuant TL v2003.03 (Amersham Biosciences).
The lower half of the slide (containing the test array) was then washed in 100 ml of 1 M NaCl containing 10 mM tris-HCl (pH 8.0) for one minute and were re-scanned as described above.
The same half of the slide was then washed for a second time in 100 ml of 1 M NaCl containing 10 mM tris-HCl (pH 8.0) for 30 minutes and re-scanned as described above.
The same half of the slide was then washed for a third time in 100 ml of water for 30 minutes and re-scanned as described above.

[8] = after first wash scan, slide background subtracted
[9] = after first wash: 1 M NaCl/10 mM tris-HCl (pH 8.0), one minute
[10] = after first wash: 1 M NaCl/10 mM tris-HCl (pH 8.0), one minute, background subtracted
[11] = after second wash scan, background subtracted
[12] = after second wash: 1 M NaCl/10 mM tris-HCl (pH 8.0), 30 minutes
[13] = after second wash: 1 M NaCl/10 mM tris-HCl (pH 8.0), 30 minutes, background subtracted
[14] = after third wash scan, background subtracted
[15] = after third wash: water, 30 minutes
[16] = after third wash: water, 30 minutes, background subtracted

Substance	Percent retention [1] [%]	Untreated fluorescence [1]	Retained fluorescence [1]	Percent retention [2]	Untreated fluorescence [2]	Retained fluorescence [2]	Percent retention [4] [%]	Untreated fluorescence [4]	Average fluorescence, control array ([7]; after first wash scan)	Corrected signal, control array [7, 8]	Average fluorescence, test array [7, 9]	Corrected signal, test array [7, 10]	Average fluorescence, control array ([7]; after second wash scan)	Corrected signal, control array [7, 11]	Average fluorescence, test array [7, 12]	Corrected signal, test array [7, 13]	Average fluorescence, control array ([7]; after third wash scan)	Corrected signal, control array [7, 14]	Average fluorescence, test array [7, 15]	Corrected signal, test array [7, 16]	further results
N-TAMPA- Asp-Norleu- Ala-Norleu-Ser- Norleu-Lys-C [Peptide 2DOS-5]	23	745,029	171,500	36%	8,664,667	3,116,833	31	5,331,763													Initial fluorescence (×10^3) [3]: 32,473 ×10^3; Recovered fluorescence (×10^3) [3]: 1,270 ×10^3; Retained fluorescence [4]: 1,651,850; Percent retention [5]: 27%; Untreated fluorescence [5]: 3,817,250; Retained fluorescence [5]: 1,048,978; Percent retention [6]: 45%; Untreated fluorescence [6]: 14,337,629; Retained fluorescence [6]: 6,492,170
N-TAMPA-Asp-Asp- Ala-Asp-Ser-Asp- Lys-C ({TAMRA}-DDADSDK) [Peptide 2DOS-8]	1	842,984	5,071	2%	10,130,734	202,943	1	6,587,741													Initial fluorescence (×10^3) [3]: 33,615 ×10^3; Recovered fluorescence (×10^3) [3]: 3 ×10^3; Retained fluorescence [4]: 93,455; Percent retention [5]: 2%; Untreated fluorescence [5]: 3,903,470; Retained fluorescence [5]: 80,770; Percent retention [6]: 4%; Untreated fluorescence [6]: 17,576,485; Retained fluorescence [6]: 637,350
TAMRA [reference compound]	1	1,051,154	10,004	5% and 4% and 6%	12,610,993 and 15,392,751 and 17,471,866	640,684 and 686,863 and 998,320	3	11,786,211													Retained fluorescence [4]: 386,629; Percent retention [5]: 1%; Untreated fluorescence [5]: 6,199,206; Retained fluorescence [5]: 64,916; Untreated fluorescence [6]: 18,396,859 and 20,662,891 and 20,649,165
TAMRA-F-G-F-G-F-G-F-G-F-G-F-S-F-A-F-D-F-G-F ({TAMRA}-FGFGFGFGFGFSFAFDFGF) [Peptide P1-5]									199,347,483	52,655,810	201,991,732	47,493,774	190,847,825	53,567,975	167,865,473	35,418,169	183,492,293	49,585,053	147,812,043	23,514,817	Retention on polypropylene surface (in words) ([7]; compared among P1-1 to P1-5, chain length of 19 amino acids): highest retention
TAMRA-F-G-F-G-F-G-F-G-F-S-F-A-F-D-F-G-F ({TAMRA}-FGFGFGFGFSFAFDFGF) [Peptide P1-4]									187,287,630	40,595,958	189,823,310	35,325,352	179,942,418	42,662,569	159,100,527	26,653,223	176,102,487	42,195,247	135,681,173	11,383,947	
TAMRA-F-G-F-G-F-G-F-S-F-A-F-D-F-G-F ({TAMRA}-FGFGFGFSFAFDFGF) [Peptide P1-3]									192,743,469	46,051,796	171,197,973	16,700,014	187,310,655	50,030,806	148,725,456	16,278,152	184,219,147	50,311,907	125,717,642	1,420,417	
TAMRA-F-G-F-G-F-S-F-A-F-D-F-G-F ({TAMRA}-FGFGFSFAFDFGF) [Peptide P1-2]									200,280,129	53,588,457	170,078,218	15,580,260	196,080,891	58,801,042	135,695,639	3,248,336	185,727,868	51,820,628	126,193,156	1,895,931	
TAMRA-F-G-F-S-F-A-F-D-F-G-F ({TAMRA}-FGFSFAFDFGF) [Peptide P1-1]									244,263,013	97,571,341	157,624,537	3,126,578	225,863,933	88,584,083	127,216,792	−5,230,512	218,342,010	84,434,769	124,941,941	644,716	
